Source: US4623625A, “Enzyme extraction and purification processes” (priority 1983, dated 1986)

What was measured:
[1] = target: T1, Zymomonas mobilis glucose 6-phosphate dehydrogenase EC 1.1.1.49 (Zymomonas mobilis subsp. mobilis, UniProt P21907); type: biochemical; conditions: assay conditions: 25° C., 50 mM Tris-Cl buffer, pH 8.0
T1 construct: endogenous in cells; host or cells: Zymomonas mobilis cells (enzyme extracted and purified from the organism itself)
T1 sequence (P21907 1-485): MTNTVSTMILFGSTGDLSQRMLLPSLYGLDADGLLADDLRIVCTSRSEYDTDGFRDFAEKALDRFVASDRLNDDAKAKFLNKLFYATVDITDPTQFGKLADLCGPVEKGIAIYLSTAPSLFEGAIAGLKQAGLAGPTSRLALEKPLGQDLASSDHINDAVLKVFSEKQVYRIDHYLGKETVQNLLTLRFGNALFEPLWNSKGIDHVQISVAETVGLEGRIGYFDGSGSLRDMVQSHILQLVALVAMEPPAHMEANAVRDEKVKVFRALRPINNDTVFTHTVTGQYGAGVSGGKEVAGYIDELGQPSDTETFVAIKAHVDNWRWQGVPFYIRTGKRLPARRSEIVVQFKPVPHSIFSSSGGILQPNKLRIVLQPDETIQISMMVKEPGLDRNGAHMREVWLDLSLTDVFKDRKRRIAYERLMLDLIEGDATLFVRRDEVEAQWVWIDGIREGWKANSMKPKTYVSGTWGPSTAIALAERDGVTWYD

[2] = target: T2, Zymomonas mobilis fructokinase EC 2.7.1.4 (Zymomonas mobilis subsp. mobilis, UniProt Q03417); assay: Kinetic properties, sugar specificity and glucose inhibition of purified fructokinase; type: biochemical
T2 construct: endogenous in cells; host or cells: Zymomonas mobilis cells (enzyme extracted and purified from the organism itself)
T2 sequence (Q03417 1-301): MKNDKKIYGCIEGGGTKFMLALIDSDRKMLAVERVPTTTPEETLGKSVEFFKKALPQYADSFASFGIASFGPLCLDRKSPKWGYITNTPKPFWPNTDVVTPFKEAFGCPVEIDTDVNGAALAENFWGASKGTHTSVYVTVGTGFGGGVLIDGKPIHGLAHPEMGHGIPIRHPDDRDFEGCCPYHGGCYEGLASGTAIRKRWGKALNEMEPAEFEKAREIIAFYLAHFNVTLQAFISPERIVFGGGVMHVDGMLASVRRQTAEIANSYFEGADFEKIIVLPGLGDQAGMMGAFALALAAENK
Source text: The active enzyme may be concentrated by ultrafiltration and stored frozen or freeze-dried.

[3] = substrate: NC(=O)c1ccc[n+]([C@@H]2O[C@H](COP(=O)([O-])OP(=O)(O)OC[C@H]3O[C@@H](n4cnc5c(N)ncnc54)[C@H](O)[C@@H]3O)[C@@H](O)[C@H]2O)c1; assay: purified protein, by the assay type; type: biochemical, Zymomonas mobilis; conditions: other: assay conditions printed: 25° C., 50 mM Tris-Cl buffer, pH 8.0
[4] = substrate: NC(=O)c1ccc[n+]([C@@H]2O[C@H](COP(=O)([O-])OP(=O)(O)OC[C@H]3O[C@@H](n4cnc5c(N)ncnc54)[C@H](OP(=O)(O)O)[C@@H]3O)[C@@H](O)[C@H]2O)c1; assay: purified protein, by the assay type; conditions: other: assay conditions printed: 25° C., 50 mM Tris-Cl buffer, pH 8.0, pH 8.0
[5] = substrate: O=C(CO)[C@@H](O)[C@H](O)[C@H](O)CO; assay: purified protein, by the assay type; type: biochemical, Zymomonas mobilis; conditions: other: assay conditions printed: 50 mM K-morpholino propane sulphonate buffer, 30 mM NaCl, 2 mM MgCl2 pH 6.8
[6] = substrate: Nc1ncnc2c1ncn2[C@@H]1O[C@H](COP(=O)(O)OP(=O)(O)OP(=O)(O)O)[C@@H](O)[C@H]1O; assay: purified protein, by the assay type; type: biochemical, Zymomonas mobilis; conditions: other: assay conditions printed: 50 mM K-morpholino propane sulphonate buffer, 30 mM NaCl, 2 mM MgCl2 pH 6.8
[7] = substrate: Nc1ncnc2c1ncn2[C@@H]1O[C@H](COP(=O)(O)OP(=O)(O)OP(=O)(O)O)[C@@H](O)[C@H]1O; assay: Kinetic properties and sugar specificity of purified glucokinase; type: biochemical, Zymomonas mobilis; conditions: other: approximate values, assay conditions: 25° C., 50 mM K-Morpholinopropane sulphonate, 30 mM NaCl, 2 mM MgCl2, pH 6.8
[8] = substrate: OC[C@H]1OC(O)[C@H](O)[C@@H](O)[C@@H]1O; assay: purified protein, by the assay type; conditions: other: approximate values, assay conditions: 25° C., 50 mM K-Morpholinopropane sulphonate, 30 mM NaCl, 2 mM MgCl2, pH 6.8, pH 6.8

Question: How did the Km [1] turn out when “glucose 6-phosphate [glucose 6-phosphate dehydrogenase]” was run?
Answer: 170 µM

Question: How did the Ki ([2]; competitive inhibitor with fructose) turn out when OC[C@H]1OC(O)[C@H](O)[C@@H](O)[C@@H]1O (stereo partly drawn) [glucose] was run?
Answer: 200 µM

Question: What about the “enzyme activity in the presence of glucose” value ([2]; glucose at 5-10 mM or more, low levels of fructose) of the same molecule?
Answer: essentially inactive

B1: Zymomonas mobilis glucose 6-phosphate dehydrogenase EC 1.1.1.49 (Zymomonas mobilis subsp. mobilis ZM4 = ATCC 31821) (protein)
chain: MTNTVSTMILFGSTGDLSQRMLLPSLYGLDADGLLADDLRIVCTSRSEYDTDGFRDFAEKALDRFVASDRLNDDAKAKFLNKLFYATVDITDPTQFGKLADLCGPVEKGIAIYLSTAPSLFEGAIAGLKQAGLAGPTSRLALEKPLGQDLASSDHINDAVLKVFSEKQVYRIDHYLGKETVQNLLTLRFGNALFEPLWNSKGIDHVQISVAETVGLEGRIGYFDGSGSLRDMVQSHILQLVALVAMEPPAHMEANAVRDEKVKVFRALRPINNDTVFTHTVTGQYGAGVSGGKEVAGYIDELGQPSDTETFVAIKAHVDNWRWQGVPFYIRTGKRLPARRSEIVVQFKPVPHSIFSSSGGILQPNKLRIVLQPDETIQISMMVKEPGLDRNGAHMREVWLDLSLTDVFKDRKRRIAYERLMLDLIEGDATLFVRRDEVEAQWVWIDGIREGWKANSMKPKTYVSGTWGPSTAIALAERDGVTWYD
notes: endogenous in cells; host or cells: Zymomonas mobilis cells (enzyme extracted and purified from the organism itself)
Question: With B1 as the molecule, how does the Km [3] read?
Answer: 210 µM

Question: And the Km [4]?
Answer: 40 µM

B2: Zymomonas mobilis fructokinase EC 2.7.1.4 (Zymomonas mobilis subsp. mobilis ZM4 = ATCC 31821) (protein)
chain: MKNDKKIYGCIEGGGTKFMLALIDSDRKMLAVERVPTTTPEETLGKSVEFFKKALPQYADSFASFGIASFGPLCLDRKSPKWGYITNTPKPFWPNTDVVTPFKEAFGCPVEIDTDVNGAALAENFWGASKGTHTSVYVTVGTGFGGGVLIDGKPIHGLAHPEMGHGIPIRHPDDRDFEGCCPYHGGCYEGLASGTAIRKRWGKALNEMEPAEFEKAREIIAFYLAHFNVTLQAFISPERIVFGGGVMHVDGMLASVRRQTAEIANSYFEGADFEKIIVLPGLGDQAGMMGAFALALAAENK
notes: as for B1
Question: B2 was tested. Which Km [5] did it give?
Answer: 500 µM

Question: And the Km [6]?
Answer: 400 µM

B3: Zymomonas mobilis glucokinase EC 2.7.1.2 (Zymomonas mobilis subsp. mobilis ZM4 = ATCC 31821) (protein)
chain: MEIVAIDIGGTHARFSIAEVSNGRVLSLGEETTFKTAEHASLQLAWERFGEKLGRPLPRAAAIAWAGPVHGEVLKLTNNPWVLRPATLNEKLDIDTHVLINDFGAVAHAVAHMDSSYLDHICGPDEALPSDGVITILGPGTGLGVAHLLRTEGRYFVIETEGGHIDFAPLDRLEDKILARLRERFRRVSIERIISGPGLGNIYEALAAIEGVPFSLLDDIKLWQMALEGKDNLAEAALDRFCLSLGAIAGDLALAQGATSVVIGGGVGLRIASHLPESGFRQRFVSKGRFERVMSKIPVKLITYPQPGLLGAAAAYANKYSEVE
notes: Glucokinase so obtained is almost homogenous by electrophoretic criteria; endogenous in cells; host or cells: Zymomonas mobilis cells (enzyme extracted and purified from the organism itself)
Question: With B3 as the molecule, how does the Km [7] read?
Answer: 800 µM

Question: What about the Km [8] of the same molecule?
Answer: 200 µM
